{"source": "paper PMC5430920", "about": "(Scientific Reports, 2017)", "target": "the molecule itself", "experiment": "SEC"}
{"protein": "Mycobacterium tuberculosis orotate phosphoribosyltransferase (enzyme, also called MtOPRT; M. tuberculosis OPRTase) MAGPDRAELAELVRRLSVVHGRVTLSSGREADYYVDLRRATLHHRASALIGRLMRELTADWDYSVVGGLTLGADPVATAIMHAPGRPIDAFVVRKSAKAHGMQRLIEGSEVTGQRVLVVEDTSTTGNSALTAVHAVQDVGGEVVGVATVVDRATGAAEAIEAEGLRYRSVLGLADLGLD", "values": [{"measurement": "stoichiometry N", "result": 2}]}
